Results published in a protein production outcome set (Wang et al. 2014).

Experiment: label from the status in PepcDB records
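Also: failed if final PepcDB status was selected cloned or expressed and not failed if soluble or beyond.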

| Sequence | protein production |
| --- | --- |
| MSSFAELLQQGASQAWLYFPSAILLGALHGLEPGHSKTMMAAFIVAIRGTVKQAVLLGLASTLSHTAVVWLVAMAGMYLGQNLNAETTEPYFQLASAAIIITIALWMLWRTWRGEQMWRFEEGDDLQHDYHHHDEMQRIDTGHGRIELSIFEEGVPPRWRLNILTGHAWSAAEMSLLTTRPDGLAQQFRFVDRGDYLESVDEIPEPHEFTARLSLGHAGHSHDYDLEFHEHGHGHGHDHAELEGLELSLEGYQDAHERAHANDIRKRFSNRNVTTGQIILFGLTGGLIPCPAAITVLLLCLQVKEVALGAVLVLCFSIGLAITLVTVGAAAAIGARQASNRWPWLGAVARRAPYLSSLLIIGVGIYVGVHGWIGLNA | failed |
| MSKKKETKLSKYIKVPIKMLVKARDMYIRSMNQFSSHDLPGSGMSFGIPVCNVSTLPRSFSASHSQYSVRAEDDRVAKLVRAASARNATIDGARHEPSKLRKAKSSRSCGGHRGFEKIDEASPLISFGSKHKMFQRSKSYSVVKYLGS | failed |
| MITQVNQLDELQLKDLKTLRAECKKNDGSIPNLYIHILKQHRSLPTSFLYYQNGALIGFLSIYFFYDDAVEVAVLVSPQYRRQGIAKQLIKEALPLIKSQNYFNLIFSCPSRLNDNWLTSKGFTYLHSEYFMERDDLNPILDYIR | not failed |
| MTLTMGFIGFGKSANRYHLPYLKTRNNIKVKTIFVRQINEELAAPYEERGVYFTTDLDELLNDKEIQVVTICTPAHTHYELAKKVILAGKSVIVEKPFCDTVEHAKELLALGREKGVVVMPYQNRRFDGDFLAVKQVVEQGFLGDIIEIESHIDYFRPGSITHEAPKEEGSFYSLGIHTMDRMISLFGRPNTVTYDIRNNEVEGAVDNYFDVGLHYGNQLKIKLKTNHIVAKDYPRFIVHGTNGSFIKYGEDQQENDLKAGIMPESAGFGEDSPMYYGIAKYRNANGDWIEKQIKTPLGDYGRFYDAAYDTIVNGAPKLVKDEEAVTNIEILENGFAAPSPSVYKLEALHLNELEHHHHHH | not failed |
| MMMYKEPFGVKVDFETGIIEGAKKSVRRLSDMEGYFVDERAWKELVEKEDPVVYEVYAVEQEEKEGDLNFSTHVIYPGKVGKEFFFAKGHFHAKLDRAQVAVALKGKGGVLMQTPEGDAKWISSEPGTVIYSPPYWAARAVNIGDEPFIMLVIYPADAGHDYGTIAEKGFSKIVIEENGEVKVVDNPRWKKGSLEHHHHHH | not failed |
| MSHWLILPILLPLFAGSLLLLPLAERWQRGLSLLAALALIPLSLLLIRTAASGDLSVYALGNWAAPFGIVLMLDRLAALMLLATAVLGSAALIYALRGEDRLGKHFHALFQFQLLGINGAFLTGDLFNLFVFFEILLIASYALLLHGGGAERVRSGLHYVILNLVGSAFFLIAVGTLYGLTGTLNMADMAQKIAMADAERAPLLAAAGLLLLVVFALKAALLPLYFWLPRAYATASAPVAALFAIMTKVGIYSILRVYTLVFGDAAGELANLAQAWLWPLALATLGLGAIGALAARTLQGLLAYLVVVSAGTLLAGVALGSERALAASLYYLLHSTWIAGGLFLLADLVARQRGDKAGDLVQGPALQNPRLLGGAFFIGAIAVAGLPPLSGFFGKVMLLQSVAPGSQALALWSVVLGSGLVALVALSRAGSTLFWRTGHTVLGSAELDHGRLFACILLLSAGPLLVFAAKPLLAYVQATAAQLHDLDLYRQIITRGGAA | failed |
| MGEEATAVAAAGVRPELVREAEVSLLECKVCFERFGHWQQRRPRNLPCGHVVCLACVAALAHPRTLGLECPFCRRACRACDTSDCLPVLHLLELLGSTLHASPAALSAAPFAPGTLTCYHAFGGWGTLVNPTGLALCPKTGRVVVVHDGKRRVKIFDSGGGGAHQFGEKGDAAHDVKYPLDVAVTNDCHVVVTDAGDCSLKVFDFFGQIKLVVGKQFSLPWGVEITPHNGVLVTDAEAGTLHLLEADFPEGVLRRIERLQAHLCSPRGLAVSWLTGAIAVLEHPCAFGRTGCNNTRVKVFNSTMQLIGQVDSFGLNLLFPSKVTASAVTFDHQGNVIVADTSGPAIVCLGKPEEFPALKPIITHGLSRPVALAFTKENSLLVLDTASHSIKVFKVMEGNGG | failed |
| MAAWVIWFIIAGILFIAEMLSITFYMLWLGIGAVVGGLIALFAPDALLLQVTVGAIVSLTLTFFTKRISKNFREAKGFTDTVDMLVGKRGIVMQAITNEANGIVKVDGDTWTAIADSSIDAGEKVVVIKRHSTILQVKKESE | failed |
| MAGLFTPKDAAMNIAIVTINQENAAIASWLAAQDFSGCTLAHWQIEPQPVVAEQVLDAMVEQWQRTPADVVLFPPGTFGDELSTRLAWRLHGASICQVTSLDIPTVSMRKSHWGNALTATLQTEKRPLCLSLARQAGAAKNATLPSGMQQLNIVPGALPDWLVSTEDLKNVSRDPLAEARRVLVVGQGGEADNQEIVMLAEKLGAEVGYSRARVMNGGVDAEKVIGISGHLLAPEVCIVVGASGAAALMAGVRNSKFMVAINHDASAAVFSQADIGVVDDWKVVLEALVTNIHAEYQ | failed |
| MVKMKKVEQLSSHLYLIDDFDLQHNERTGTYVLLGDDITLIETCAAPSLPYILDGLQQLHIDLNEVKNIIVTHVHLDHAGAAGLMMEKCPNATLYVHSRGARHMIDPTKLILGAKAVYKEDFDKLFDPILPIEEERVHIVQHGDTLQIAEDRILTFYDTPGHAKHHISIHDSLTNGIFTGDTIGIYYRELADLGVELYLPSTSPSQFQPDAMIASKNHIQSMNVDTIYFGHYGASSNVTEVYKQLEHWLPIFVHTGKEVFEKYNDFDEATKALQTILMDKISSHLIKLNVPSDHSVYNILHLDIEISAMGIIDYFTKLEKTNPPIS | failed |
| MTCAYRREIHHAHVAIRDWLAGDSRADALDALMARFAEDFSMVTPHGVVLDKTALGELFRSKGGTRPGLRIEIDGESLLASGVDGATLAYREIQSDAAGRSERLSTVVLHRDDEGRLYWRHLQETFCG | not failed |
| PFIMDAPRDLNISEGRMAELKCRTPPMSSVKWLLPNGTVLSHASRHPRISVLNDGTLNFSHVLLSDTGVYTCMVTNVAGNSNASAYLNVS | not failed |
| MDIQRSILIVALAVVSYLLVLQWNKDYGQPELPAASASMNTTQGLPDTPSASGTSSDVPTAQSSAAGSEAADKPVAVSDKLIQVKTDVLDLAIDPRGGDIVQLGLLQYPRRLDRPDVPFPLFDNGRERTYLAQSGLTGADGPDASSAGRPLFRSAQSSYQLADGQNELVVDLSFSHDGVNYIKRFTFHRGLKADCSDKEKAQKKIECINENAYQVGVSYLIDNQSGKTWSGNLFAQLKRDGSADPSSTTATGVSTYLGAAVWTPDSPYKKISTKDMDKEQFKESVQGGWVAWLQHYFVTAWVPTKGEQHQVMTRKDGQGNYIVGFTGPTLSVPAGSKVETDLTLYAGPKLQKHLKELSPGLELTVDYGFLWFIAQPIFWLLQHIHSLIGNWGWSIIALTVLIKLAFFPLSAASYRSMARMRAVSPKMQAIKEQHGDDRQKMSQAMMELYKKEKINPLGGCLPILVQMPVFLSLYWVLLESVEMRQAPWLGWITDLSVKDPFFILPIVMGGTMLIQQMLNPTPPDPMQAKVMKLMPIIFTFFFLWFPAGLVLYWVVNNCLSIAQQWYITRKIEAAAKTA | failed |
| PRFLFVHGWGFDRNFWEPVRRAIGQHNGDSLDFGYFGQSKLEYDWSQPFIAVGHSLGFLWLLQQPLAACIQLISINGFSRFFAGSDWPFGVPQRVTKRMQLALHRDAKKTLDQFYETVGFFDTSEKRYDLAALDNGLEFLMTQDNRSIAKKQAHKIAIMASDQDPIVPVSLTKACFPTPTPILWNKDGGHLLPITDPDSCANFIRDVVK | failed |
| MIPLMHDFEGETVLVVGGGSVGARKARTFATEASVVVLSPEFGDRTFADAEKVRAAPTPEDATDWVERTDPALVVAATDDSDLNGAFSTAAAEHGALVNRTDDHGDQSFGNIVVPATVRDDPVTLAIATGGRAPALSKHLRERFEDEFGNAGLMADLVGDLREDLRDRGVPPAKRRDAVRFVVRSREVWKALDSGRSKGEQVARDVIGELPGDQT | not failed |
| MVDYHYFKSKLNHFYGRYVGYNQRPVFFDIDQTFPELNHITRHFPDIKREFENVQANVKEFPRYHDIDPGESAISNTTEKNWNVFMLYLLGYQLKEARLLCPELCNLLEGIPHLIQAFFSILEPGKSIPLHEGPYIGYLRYHLGIHVPQNNPPQILVNNQTYTWKEGEAVLFDDSWPHEVRNTSDDYRAVLIIDVLRPMPFLPQLVNQFVTHVIARYFYGRKVMKRAMQYGGEVKPLALLEHHHHHH | failed |
| MQETDSGAGPRTLRRGLMVLAALRDQGPRGLSVTDIARQTGIQRPTIYRLLAALLDAGLVVPLQGTKKYRTQLAADADLAAPNPRVRQMLPVLRRLADRTGDAVFLVVRDGDDSVSLHREIGSYPVQILATYAGKRQPLGVGSGSMALLAALPDEVAHAIVQRNSGRLDEYGGMTPQEMHRLIENTRARGYSVVGNHAVRGALGVGCALLDAQGAPVLAVSVTAIIDRMPAQRQREIAGWIGAELARLAPKA | failed |
| MGNSQRQSEEIEAMAAIYGEEWCVIDENAKIFCIRVTDFMDDPKWTLCLQVMLPSEYPGTAPPSYQLNAPWLKGQERADLSNSLEEIYVHNMGESILYQWVEKIRDALIQKSQITEP | not failed |
| MFTRRGDQGETDLANRARVGKDSPVVEVQGTIDELNSFIGYALVLSRWDDIRNDLFRIQNDLFVLGEDVSTGGKGRTVTREMIDYLEARVKEMKAEIGKIELFVVPGGSIESASLHMARAVSRRLERRIVAASKLTEINKNVLIYANRLSSILFMHALLSNKRLNIPEKIWSIHRVS | not failed |
| MTIATIDIGGTGIKFASLTPDGKILDKTSISTPENLEDLLAWLDQRLSEQDYSGIAMSVPGAVNQETGVIDGFSAVPYIHGFSWYEALSSYQLPVHLENDANCVGLSELLAHPELENAACVVIGTGIGGAMIINGRLHRGRHGLGGEFGYMTTLAPAEKLNNWSQLASTGNMVRYVIEKSGHTDWDGRKIYQEAAAGNILCQEAIERMNRNLAQGLLNIQYLIDPGVISLGGSISQNPDFIQGVKKAVEDFVDAYEEYTVAPVIQACTYHADANLYGALVNWLQEEKQW | not failed |
| MNAWNTIYDQFNPIAFSLGSIEVHWYGLAYACAIVTAFYMALRMIQKDPKRFPIERKEFESYFLWAELGIVLGARIGYILIYEPNSGYYLTHFWQIFNPFDSHGNFVGIRGMSYHGGLVGFLIASYLYSRKDLKKLLIYLDLIAISLPLGYVFGRIGNFLNQELVGRIVPKDSHLGQIIGIMVDNELRYPSQLIEAFLEGVIVFLMVMWAKKHTKTHGLLIVVYGLGYSLMRFIAEFYREPDSQMGVYFLNLSMGQILSLFMVIVSLGILLYATKNSKKIKENQ | failed |
| MGQTALARGSSSTPTSQALYSDFSPPEGLEELLSAPPPDLVAQRHHGWNPKDCSENIDVKEGGLCFERRPVAQSTDGVRGKRGYSRGLHAWEISWPLEQRGTHAVVGVATALAPLQADHYAALLGSNSESWGWDIGRGKLYHQSKGLEAPQYPAGPQGEQLVVPERLLVVLDMEEGTLGYSIGGTYLGPAFRGLKGRTLYPSVSAVWGQCQVRIRYMGERRVEEPQSLLHLSRLCVRHALGDTRLGQISTLPLPPAMKRYLLYK | failed |
| MKDPNSQYQIDYVLLFILFAIGIVSCCAIASAQASLPPFLQNVNFVLKQIQWYFIGFIAIGVIMIIDFDRYQKIAWYLYSFAMVLLIGLELQVPGAVTIKGATAWYRLPGIGNFQPSEIMKLFLIIVIGRIIANHNEKYFSQTIHDDFLLLGKIFATSLPPLLLIAKEPDLGNTMVISAMLAAMILVSGIRWRFIFGLVSGTFVAGSTLIYIFFTHTDFFKAHILKEYQLNRFYGWLAPYKYDAQGYQLRQAFLATGSGEMQGKGWENGQVYFPEPHTDFIFTNVAEQFGFLGASVIISLFFLLIFRMIHIALESNDPFGSYICAGTIGMFTFQVFQNIGMTIGLLPITGITLPLMSYGGSSLLTYMIAIGFILNVRSRTKIFMFK | failed |
